# Results: IntAct's records for PubMed 30126976
# B1: Plasma membrane calcium-transporting ATPase 2 (Homo sapiens), Q01814 (parent)
# chain: MGDMTNSDFYSKNQRNESSHGGEFGCTMEELRSLMELRGTEAVVKIKETYGDTEAICRRLKTSPVEGLPGTAPDLEKRKQIFGQNFIPPKKPKTFLQLVWEALQDVTLIILEIAAIISLGLSFYHPPGEGNEGCATAQGGAEDEGEAEAGWIEGAAILLSVICVVLVTAFNDWSKEKQFRGLQSRIEQEQKFTVVRAGQVVQIPVAEIVVGDIAQVKYGDLLPADGLFIQGNDLKIDESSLTGESDQVRKSVDKDPMLLSGTHVMEGSGRMLVTAVGVNSQTGIIFTLLGAGGEEEEKKDKKGVKKGDGLQLPAADGAAASNAADSANASLVNGKMQDGNVDASQSKAKQQDGAAAMEMQPLKSAEGGDADDRKKASMHKKEKSVLQGKLTKLAVQIGKAGLVMSAITVIILVLYFTVDTFVVNKKPWLPECTPVYVQYFVKFFIIGVTVLVVAVPEGLPLAVTISLAYSVKKMMKDNNLVRHLDACETMGNATAICSDKTGTLTTNRMTVVQAYVGDVHYKEIPDPSSINTKTMELLINAIAINSAYTTKILPPEKEGALPRQVGNKTECGLLGFVLDLKQDYEPVRSQMPEEKLYKVYTFNSVRKSMSTVIKLPDESFRMYSKGASEIVLKKCCKILNGAGEPRVFRPRDRDEMVKKVIEPMACDGLRTICVAYRDFPSSPEPDWDNENDILNELTCICVVGIEDPVRPEVPEAIRKCQRAGITVRMVTGDNINTARAIAIKCGIIHPGEDFLCLEGKEFNRRIRNEKGEIEQERIDKIWPKLRVLARSSPTDKHTLVKGIIDSTHTEQRQVVAVTGDGTNDGPALKKADVGFAMGIAGTDVAKEASDIILTDDNFSSIVKAVMWGRNVYDSISKFLQFQLTVNVVAVIVAFTGACITQDSPLKAVQMLWVNLIMDTFASLALATEPPTETLLLRKPYGRNKPLISRTMMKNILGHAVYQLALIFTLLFVGEKMFQIDSGRNAPLHSPPSEHYTIIFNTFVMMQLFNEINARKIHGERNVFDGIFRNPIFCTIVLGTFAIQIVIVQFGGKPFSCSPLQLDQWMWCIFIGLGELVWGQVIATIPTSRLKFLKEAGRLTQKEEIPEEELNEDVEEIDHAERELRRGQILWFRGLNRIQTQIRVVKAFRSSLYEGLEKPESRTSIHNFMAHPEFRIEDSQPHIPLIDDTDLEEDAALKQNSSPPSSLNKNNSAIDSGINLTTDTSKSATSSSPGSPIHSLETSL
# B2: FAST kinase domain-containing protein 5, mitochondrial (Homo sapiens), Q7L8L6 (parent)
# chain: MAATLKSLKLVRYRAFCSPSAFGAVRSVSYWNVSSTQHGGQDPPEHISLCHSAKKVKNICSTFSSRRILTTSSAHPGLEFSKTSSSKASTLQLGSPRATGVDEEDVEVFDSFENMRVFLQLRPEYRVHSYNASETSQLLSVSEGELILHKVRVNQNNLQAQVIVDYLCKLSSLPAEQHPVLLGSTSFALLCQLSVKKIQLFDTQDLINVLKAFVILGIPHSHSMLDVYETKCCHQVWEMNMDQLLLVADLWRYLGRKVPRFLNIFSSYLNLHWKDLSLSQLVHLIYVIGENRQVSQDLMQKLESLILKYIDLINLEEVGTICLGFFKSSTNLSEFVMRKIGDLACANIQHLSSRSLVNIVKMFRFTHVDHINFMKQIGEIAPQRIPSLGVQGVMHLTLYCSALRFLNEGVMNAVAASLPPRVAHCRSKDVAKILWSFGTLNYKPPNAEEFYSSLISEIHRKMPEFNQYPEHLPTCLLGLAFLEYFPVELIDFALSPGFVRLAQERTKFDLLKELYTLDGTVGIECPDYRGNRLSTHLQQEGSELLWYLAEKDMNSKPEFLETVFLLETMLGGPQYVKHHMILPHTRSSDLEVQLDVNLKPLPFNREATPAENVAKLRLEHVGVSLTDDLMNKLLKGKARGHFQGKTESEPGQQPMELENKAAVPLGGFLCNVADKSGAMEMAGLCPAACMQTPRMKLAVQFTNRNQYCYGSRDLLGLHNMKRRQLARLGYRVVELSYWEWLPLLKRTRLEKLAFLHEKVFTSAL
# B3: Plasma membrane calcium-transporting ATPase 1 (Homo sapiens), P20020 (parent)
# chain: MGDMANNSVAYSGVKNSLKEANHDGDFGITLAELRALMELRSTDALRKIQESYGDVYGICTKLKTSPNEGLSGNPADLERREAVFGKNFIPPKKPKTFLQLVWEALQDVTLIILEIAAIVSLGLSFYQPPEGDNALCGEVSVGEEEGEGETGWIEGAAILLSVVCVVLVTAFNDWSKEKQFRGLQSRIEQEQKFTVIRGGQVIQIPVADITVGDIAQVKYGDLLPADGILIQGNDLKIDESSLTGESDHVKKSLDKDPLLLSGTHVMEGSGRMVVTAVGVNSQTGIIFTLLGAGGEEEEKKDEKKKEKKNKKQDGAIENRNKAKAQDGAAMEMQPLKSEEGGDGDEKDKKKANLPKKEKSVLQGKLTKLAVQIGKAGLLMSAITVIILVLYFVIDTFWVQKRPWLAECTPIYIQYFVKFFIIGVTVLVVAVPEGLPLAVTISLAYSVKKMMKDNNLVRHLDACETMGNATAICSDKTGTLTMNRMTVVQAYINEKHYKKVPEPEAIPPNILSYLVTGISVNCAYTSKILPPEKEGGLPRHVGNKTECALLGLLLDLKRDYQDVRNEIPEEALYKVYTFNSVRKSMSTVLKNSDGSYRIFSKGASEIILKKCFKILSANGEAKVFRPRDRDDIVKTVIEPMASEGLRTICLAFRDFPAGEPEPEWDNENDIVTGLTCIAVVGIEDPVRPEVPDAIKKCQRAGITVRMVTGDNINTARAIATKCGILHPGEDFLCLEGKDFNRRIRNEKGEIEQERIDKIWPKLRVLARSSPTDKHTLVKGIIDSTVSDQRQVVAVTGDGTNDGPALKKADVGFAMGIAGTDVAKEASDIILTDDNFTSIVKAVMWGRNVYDSISKFLQFQLTVNVVAVIVAFTGACITQDSPLKAVQMLWVNLIMDTLASLALATEPPTESLLLRKPYGRNKPLISRTMMKNILGHAFYQLVVVFTLLFAGEKFFDIDSGRNAPLHAPPSEHYTIVFNTFVLMQLFNEINARKIHGERNVFEGIFNNAIFCTIVLGTFVVQIIIVQFGGKPFSCSELSIEQWLWSIFLGMGTLLWGQLISTIPTSRLKFLKEAGHGTQKEEIPEEELAEDVEEIDHAERELRRGQILWFRGLNRIQTQIRVVNAFRSSLYEGLEKPESRSSIHNFMTHPEFRIEDSEPHIPLIDDTDAEDDAPTKRNSSPPPSPNKNNNAVDSGIHLTIEMNKSATSSSPGSPLHSLETSL
# Variants of: B1
# Conditions: with scrib_human SCRIB
row,effect of a mutation on the interaction,Variant
1,increasing interaction strength,S1242E
2,disrupting interaction strength,S1238E

# Variants of: B1
# Conditions: with scrib_human SCRIB
# Remark: another data set of the same source
# Target sequence in this assay (Q14160 whole entry): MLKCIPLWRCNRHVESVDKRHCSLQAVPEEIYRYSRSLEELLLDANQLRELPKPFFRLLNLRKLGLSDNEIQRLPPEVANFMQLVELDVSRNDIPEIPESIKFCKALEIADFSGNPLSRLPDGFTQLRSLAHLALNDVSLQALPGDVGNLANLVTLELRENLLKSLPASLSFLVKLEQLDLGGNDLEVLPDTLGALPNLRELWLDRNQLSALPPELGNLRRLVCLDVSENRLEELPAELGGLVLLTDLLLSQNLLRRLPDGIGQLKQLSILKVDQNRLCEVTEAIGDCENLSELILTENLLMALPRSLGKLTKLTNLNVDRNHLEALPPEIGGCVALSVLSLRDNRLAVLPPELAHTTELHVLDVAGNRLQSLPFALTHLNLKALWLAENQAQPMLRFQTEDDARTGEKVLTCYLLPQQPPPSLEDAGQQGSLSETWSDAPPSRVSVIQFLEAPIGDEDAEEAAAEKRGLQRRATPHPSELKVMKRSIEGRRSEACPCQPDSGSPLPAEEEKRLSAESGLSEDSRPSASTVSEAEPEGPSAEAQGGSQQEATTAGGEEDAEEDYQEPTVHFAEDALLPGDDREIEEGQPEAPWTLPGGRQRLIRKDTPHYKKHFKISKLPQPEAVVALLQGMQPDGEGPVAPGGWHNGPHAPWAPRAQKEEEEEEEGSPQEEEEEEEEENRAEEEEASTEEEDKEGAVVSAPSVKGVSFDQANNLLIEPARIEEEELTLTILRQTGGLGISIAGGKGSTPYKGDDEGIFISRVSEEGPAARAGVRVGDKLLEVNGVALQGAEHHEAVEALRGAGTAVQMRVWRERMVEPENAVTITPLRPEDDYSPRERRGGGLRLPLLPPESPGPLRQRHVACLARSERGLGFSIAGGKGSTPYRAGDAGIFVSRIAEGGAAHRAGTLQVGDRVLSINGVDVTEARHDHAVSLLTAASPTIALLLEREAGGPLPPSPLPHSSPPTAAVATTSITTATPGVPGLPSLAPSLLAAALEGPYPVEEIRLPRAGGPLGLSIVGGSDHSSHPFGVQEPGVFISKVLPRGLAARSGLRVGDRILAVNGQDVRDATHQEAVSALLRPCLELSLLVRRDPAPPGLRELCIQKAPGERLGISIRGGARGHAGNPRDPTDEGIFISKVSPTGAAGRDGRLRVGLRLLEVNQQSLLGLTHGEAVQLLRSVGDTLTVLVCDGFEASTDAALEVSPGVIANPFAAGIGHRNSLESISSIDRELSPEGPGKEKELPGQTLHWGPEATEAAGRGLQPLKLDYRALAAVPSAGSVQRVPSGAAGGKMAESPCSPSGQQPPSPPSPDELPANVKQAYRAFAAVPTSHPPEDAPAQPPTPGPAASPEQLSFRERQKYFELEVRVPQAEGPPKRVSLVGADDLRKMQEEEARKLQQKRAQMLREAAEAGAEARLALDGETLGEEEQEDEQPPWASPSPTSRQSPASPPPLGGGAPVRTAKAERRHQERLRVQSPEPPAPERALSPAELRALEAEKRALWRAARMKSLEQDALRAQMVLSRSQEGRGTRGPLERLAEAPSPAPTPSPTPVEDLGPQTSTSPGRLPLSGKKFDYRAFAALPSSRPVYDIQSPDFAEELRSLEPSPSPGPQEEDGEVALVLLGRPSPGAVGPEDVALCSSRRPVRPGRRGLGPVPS
row,effect of a mutation on the interaction,Variant
1,with no effect,S1242E
2,decreasing interaction strength,T1241E
3,with no effect,S1238E;S1242E

# Variants of: B2
# Conditions: with scrib_human SCRIB
# Target sequence in this assay (Q14160 whole entry): as above
row,effect of a mutation on the interaction,Variant
1,causing an interaction,T761E

# Variants of: B2
# Conditions: with scrib_human SCRIB
# Remark: another data set of the same source
# Target sequence in this assay (Q14160 whole entry): as above
row,effect of a mutation on the interaction,Variant
1,increasing interaction strength,T761E

# Variants of: B3
# Conditions: with scrib_human SCRIB
# Target sequence in this assay (Q14160 whole entry): as above
row,effect of a mutation on the interaction,Variant
1,increasing interaction strength,S1219E

# Variants of: B3
# Conditions: with scrib_human SCRIB
# Remark: another data set of the same source
# Target sequence in this assay (Q14160 whole entry): as above
row,effect of a mutation on the interaction,Variant
1,increasing interaction strength,S1215E;S1219E
